Results published in paper doi:10.1101/2020.12.29.424711 (bioRxiv, 2020).

B1: ION_360 Fab (Fab, V domains shown)
VH: EVQLVQSGGGLVKPGGSLRLSCAASGITVSSNYMSWVRQAPGKGLEWVSVIYSGGSTYYADSVKGRFTISRDNSKNTLYLQMNSLRAEDTAVYYCARGEGGSIVGVTSDYWGQGTLVTVSS
VL: DIQMTQSPSSLSASVGDRVTITCRASQSISRYLNWYQQKPGKAPKLLIYAASSLQSGVPSRFSGSGSETEFTLTISSLHPDDFATYYCQQSYSTLPYTFGQGTKVEIK
B2: ION_300 Fab (Fab, V domains shown)
VH: QVQLVQSGAEVKKPGESLKISCKGSGYSFTSYWIGWVRQMPGKGLEWMGIIYPGDSDTRYSPSFQGQVTISADKSISTAYLQWSSLKASDTAMYYCARHPSPYYYGSGSYSGGFDYWGQGTLVTVSS
VL: DIVMTQSPGTLSLSPGERATLSCRASQSVSSSYLAWYQQKPGQAPRLLIYGASTRATGIPARFSGSGSGTEFTLTISSLQSEDFAVYYCQQYDNWPLMHTFGQGTKLEIK
B3: ION_300 IgG1 (antibody, V domains shown)
VH: QVQLVQSGAEVKKPGESLKISCKGSGYSFTSYWIGWVRQMPGKGLEWMGIIYPGDSDTRYSPSFQGQVTISADKSISTAYLQWSSLKASDTAMYYCARHPSPYYYGSGSYSGGFDYWGQGTLVTVSS
VL: DIVMTQSPGTLSLSPGERATLSCRASQSVSSSYLAWYQQKPGQAPRLLIYGASTRATGIPARFSGSGSGTEFTLTISSLQSEDFAVYYCQQYDNWPLMHTFGQGTKLEIK

Tests used:
[1] = target: SARS-CoV-2 receptor binding domain (RBD), as crystallised (SARS-CoV-2, UniProt P0DTC2); assay: crystal structure
[2] = target: SARS-CoV-2 RBD, as used in Octet epitope binning and as SPR analyte (SARS-CoV-2, UniProt P0DTC2); assay: BLI

| Binder | binding result [1] | binding result [2] |
| --- | --- | --- |
| B1 | binds |  |
| B2 | binds |  |
| B3 |  | binds |
